The source of these data is the supplement of paper PMC10724198.

For the data set, the system named is Saccharomyces cerevisiae. The data set can be described thus: protein stability index of tFT-peptide fusion (C-terminal peptide) (PSI (0-1 scale)); higher = more stable (slower turnover). Particulars: temperature: 30 C. The procedure: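 MPS profiling in S. cerevisiae of the yeast C-terminome library: the last 12 aa of each annotated ORF are fused to the C-terminus of a sfGFP-mCherry timer, after a GGGS linker. Cells are FACS-sorted into 8 mCherry/sfGFP bins and deep-sequenced. PSI runs from 0 (unstable) to 1 (stable); wild type and das1Δ backgrounds, two technical replicates each.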

Setting [1] is: genetic background: das1 deletion.

± gives the standard deviation of the averaged measurements.

With QTSAKISIRLLY [SER3 C-terminal 12 aa], the protein stability index amounted to 0.6607 ± 0.00096 under setting [1] and 0.582 ± 0.0062 (genetic background: wild type).
As to QTSAKVSIRLLY [SER33 C-terminal 12 aa], the protein stability index is 0.659 ± 0.034 under setting [1] and 0.595 ± 0.0064 (genetic background: wild type).
The like results for RAGRSTLKETPQ [CCT6 C-terminal 12 aa] were, in that order, 0.673 ± 0.018 and 0.692 ± 0.071.
The like results for RAMNEDETLRNL [ORC1 C-terminal 12 aa] were, in that order, 0.6957 ± 0.0042 and 0.746 ± 0.012.
As for RCGALSEKLVFL [FMT1 C-terminal 12 aa], the protein stability index under setting [1] stood at 0.694 ± 0.011 and the protein stability index (genetic background: wild type) stood at 0.697 ± 0.013.
Take RDLPSVLAKYGF [RRG1 C-terminal 12 aa]: the protein stability index was determined as 0.7236 ± 0.0048 under setting [1] and 0.703 ± 0.04 (genetic background: wild type).
Turning to RDNPILLEDEDP [ULP2 C-terminal 12 aa], the protein stability index stood at 0.708 ± 0.022 under setting [1] and 0.6747 ± 0.00092 (genetic background: wild type).
For REDDDEPASLDF [PRI1 C-terminal 12 aa] the same measures were 0.697 ± 0.0043 and 0.6533 ± 0.0064.
For REVLEQEGRRIE [NBL1 C-terminal 12 aa] the same measures were 0.69 ± 0.0073 and 0.693 ± 0.054.
With RILKDEIPIGED [BET3 C-terminal 12 aa], the protein stability index is, setting by setting: under setting [1], 0.702 ± 0.017; (genetic background: wild type) 0.659 ± 0.0079.
For RIYDFFQSQNWM [ADA2 C-terminal 12 aa] the same measures were 0.7311 ± 0.0031 and 0.7058 ± 0.0047.
RKAAERDNMLTT [CTL1 C-terminal 12 aa]: the protein stability index by setting is: under setting [1], 0.704 ± 0.015; (genetic background: wild type) 0.706 ± 0.0072.
For RKDEHIVQNIIN [YGR164W C-terminal 12 aa] the same measures were 0.6993 ± 0.0033 and 0.681 ± 0.029.
The like results for RKFQPPPGFKRK [SMB1 C-terminal 12 aa] were, in that order, 0.724 ± 0.017 and 0.74 ± 0.047.
The like results for RLKTGKKKGGPK [RRP14 C-terminal 12 aa] were, in that order, 0.6909 ± 0.0054 and 0.766 ± 0.13.
Regarding RLPRSFLFLNKK [YOR343C C-terminal 12 aa], the protein stability index under setting [1] is 0.723 ± 0.01 and the protein stability index (genetic background: wild type) amounted to 0.665 ± 0.028.
For RLVVEPLQGRKH [ISD11 C-terminal 12 aa] the same measures were 0.729 ± 0.011 and 0.72 ± 0.036.
RLYVSRLFISKL [ATP8 C-terminal 12 aa]: the protein stability index by setting is: under setting [1], 0.801 ± 0.042; (genetic background: wild type) 0.671 ± 0.14.
For RMDEENYEEEFC [UBP11 C-terminal 12 aa] the same measures were 0.716 ± 0.02 and 0.707 ± 0.034.
The like results for RNQNSDRLNFQP [YBR138C C-terminal 12 aa] were, in that order, 0.705 ± 0.0061 and 0.675 ± 0.016.
For RPFYKRMFTKEK [HXT5 C-terminal 12 aa], the protein stability index came to 0.7313 ± 0.0058 under setting [1] and 0.732 ± 0.033 (genetic background: wild type).
RPMPPIRGPKRR [SMD3 C-terminal 12 aa]: the protein stability index reads like this: under setting [1], 0.688 ± 0.017; (genetic background: wild type) 0.724 ± 0.048.
As for “RPMQHMYINNFT [YAL026C-A C-terminal 12 aa]”, the protein stability index reads like this: under setting [1], 0.71914 ± 0.00059; (genetic background: wild type) 0.672 ± 0.011.
In turn, RQLGSKQRKHRL [ECI1 C-terminal 12 aa] showed a protein stability index under setting [1] of 0.786 ± 0.021 and a protein stability index (genetic background: wild type) of 0.82 ± 0.026.
As to RQSRERALGIKR [PRP22 C-terminal 12 aa], the protein stability index by setting is: under setting [1], 0.6929 ± 0.0054; (genetic background: wild type) 0.701 ± 0.036.
The like results for RRCDDMLYYIQN [POP4 C-terminal 12 aa] were, in that order, 0.716 ± 0.021 and 0.662 ± 0.011.
The like results for RRQMGIPTISQV [FHN1 C-terminal 12 aa] were, in that order, 0.681 ± 0.016 and 0.6838 ± 0.0048.
RSDTKEPLALLS [VPS20 C-terminal 12 aa]: the protein stability index by setting is: under setting [1], 0.6784 ± 0.0067; (genetic background: wild type) 0.646 ± 0.01.
The like results for RSHSRKNSLSLL [SPO24 C-terminal 12 aa] were, in that order, 0.72 ± 0.021 and 0.734 ± 0.028.
Consider RTDPDRYSRLSV [ILT1 C-terminal 12 aa], for which the protein stability index was found to be 0.703 ± 0.027 under setting [1] and 0.7277 ± 0.0055 (genetic background: wild type).
On to “SCFSYSVGSKFT [YPR170W-A C-terminal 12 aa]”, for which the protein stability index is 0.7068 ± 0.0063 under setting [1] and 0.703 ± 0.014 (genetic background: wild type).
As for SDHCWDGCWWCR [AQY2 C-terminal 12 aa], the protein stability index reads like this: under setting [1], 0.7424 ± 0.0017; (genetic background: wild type) 0.765 ± 0.041.
For “SEEKRRLAPADI [YOL019W-A C-terminal 12 aa]” the same measures were 0.68 ± 0.02 and 0.691 ± 0.024.
For SELKGFVDEVDL [TFC1 C-terminal 12 aa] the same measures were 0.7183 ± 0.0033 and 0.721 ± 0.037.
In turn, SESLSDSDLEIL [RAD24 C-terminal 12 aa] returned a protein stability index under setting [1] of 0.7105 ± 0.0068 and a protein stability index (genetic background: wild type) of 0.666 ± 0.0085.
For “SFCYVSACGRTQ [YFL021C-A C-terminal 12 aa]” the same measures were 0.677 ± 0.0097 and 0.709 ± 0.018.
Regarding “SFFLRNFFPSLF [YDL159W-A C-terminal 12 aa]”, the protein stability index runs as follows: under setting [1], 0.756 ± 0.026; (genetic background: wild type) 0.246 ± 0.022.
The like results for SFPIASSTTQTS [NST1 C-terminal 12 aa] were, in that order, 0.696 ± 0.021 and 0.689 ± 0.0087.
Take SFYDNSLQTWIV [RRT2 C-terminal 12 aa]: the protein stability index reads like this: under setting [1], 0.7484 ± 0.0042; (genetic background: wild type) 0.752 ± 0.029.
The like results for SGEAAEEAEDEE [RPS9B C-terminal 12 aa] were, in that order, 0.652 ± 0.023 and 0.664 ± 0.039.
The like results for SGIKEFFDNYKS [ARO9 C-terminal 12 aa] were, in that order, 0.712 ± 0.027 and 0.716 ± 0.025.
For SGSGNSSKSNCC [SEC4 C-terminal 12 aa] the same measures were 0.691 ± 0.025 and 0.674 ± 0.018.
Sequence SHDMDFNNAGDF [HMS1 C-terminal 12 aa] had a protein stability index under setting [1] of 0.707 ± 0.03 and a protein stability index (genetic background: wild type) of 0.7067 ± 0.0045.
SHPTEQTEVSSQ [MHR1 C-terminal 12 aa] came in with a protein stability index under setting [1] of 0.697 ± 0.0079 and a protein stability index (genetic background: wild type) of 0.68 ± 0.02.
As for SICPAIRRKEDY [RDT1 C-terminal 12 aa], the protein stability index reads like this: under setting [1], 0.699 ± 0.025; (genetic background: wild type) 0.659 ± 0.025.
For SIPGITGRAQIS [ORM1 C-terminal 12 aa] the same measures were 0.6983 ± 0.0014 and 0.6656 ± 0.0065.
For SIYDGTEEKIVY [DAL4 C-terminal 12 aa], the protein stability index reads like this: under setting [1], 0.689 ± 0.018; (genetic background: wild type) 0.705 ± 0.01.
The like results for SKLGINSGLCTN [ESL1 C-terminal 12 aa] were, in that order, 0.683 ± 0.01 and 0.688 ± 0.03.
Turning to SLCMEAGLVNEN [YCF1 C-terminal 12 aa], the protein stability index by setting is: under setting [1], 0.6959 ± 0.0021; (genetic background: wild type) 0.663 ± 0.037.
Consider SLDITEDWEVIF [ROT2 C-terminal 12 aa], for which the protein stability index was found to be 0.725 ± 0.023 under setting [1] and 0.7587 ± 0.0031 (genetic background: wild type).
For SLEKELISRGYR [CDC73 C-terminal 12 aa] the same measures were 0.724 ± 0.0099 and 0.685 ± 0.02.
For SLKNYHNNTAQA [DBP6 C-terminal 12 aa] the same measures were 0.688 ± 0.031 and 0.68 ± 0.0075.
As for SLNRPAERGGNR [YNL143C C-terminal 12 aa], the protein stability index is, setting by setting: under setting [1], 0.69578 ± 0.00021; (genetic background: wild type) 0.688 ± 0.041.
As to SLPRQAGGRKKK [GLC7 C-terminal 12 aa], the protein stability index runs as follows: under setting [1], 0.715 ± 0.033; (genetic background: wild type) 0.668 ± 0.052.
The like results for SLQVILEFVSQH [SXM1 C-terminal 12 aa] were, in that order, 0.654 ± 0.029 and 0.6248 ± 0.0024.
For the sequence SLYPRFSGRCKP [DED81 C-terminal 12 aa], the protein stability index stood at 0.703 ± 0.011 under setting [1] and 0.6745 ± 0.0059 (genetic background: wild type).
The like results for SMVSCLLTLYVL [GTT3 C-terminal 12 aa] were, in that order, 0.4741 ± 0.0017 and 0.4796 ± 0.0038.
For the sequence SNENARNNNPYL [FLC2 C-terminal 12 aa], the protein stability index under setting [1] was determined as 0.6906 ± 0.0056 and the protein stability index (genetic background: wild type) was determined as 0.705 ± 0.043.
The like results for SNFSRTLGLEFI [YGL041C C-terminal 12 aa] were, in that order, 0.711 ± 0.0098 and 0.716 ± 0.077.
Take SNSSICFPLTIF [YKL136W C-terminal 12 aa]: the protein stability index is, setting by setting: under setting [1], 0.6337 ± 0.0033; (genetic background: wild type) 0.2798 ± 0.0007.
With SNSSKNRMNNYR [SPT6 C-terminal 12 aa], the protein stability index is, setting by setting: under setting [1], 0.702 ± 0.017; (genetic background: wild type) 0.721 ± 0.034.
For the sequence SPISVDFSSYLS [NBP1 C-terminal 12 aa], the protein stability index runs as follows: under setting [1], 0.734 ± 0.015; (genetic background: wild type) 0.72 ± 0.058.
Turning to SRDYEETEYSVI [SPP381 C-terminal 12 aa], the protein stability index is, setting by setting: under setting [1], 0.709 ± 0.025; (genetic background: wild type) 0.687 ± 0.062.
Regarding SRRRPFIGPETV [YMR057C C-terminal 12 aa], the protein stability index reads like this: under setting [1], 0.709 ± 0.037; (genetic background: wild type) 0.703 ± 0.0072.
SRVDEVVTKYSH [AAH1 C-terminal 12 aa] showed a protein stability index under setting [1] of 0.7 ± 0.029 and a protein stability index (genetic background: wild type) of 0.667 ± 0.028.
Turning to SSANIDINSIAK [SPO22 C-terminal 12 aa], the protein stability index is, setting by setting: under setting [1], 0.7 ± 0.04; (genetic background: wild type) 0.729 ± 0.11.
For SSASPEVDCRCG [YLR444C C-terminal 12 aa], the protein stability index under setting [1] came to 0.705 ± 0.0094 and the protein stability index (genetic background: wild type) is 0.7312 ± 0.0057.
